Laboratory results: US20250043302A1, “MUTATED HYDROXYPHENYLPYRUVATE DIOXYGENASE POLYPEPTIDE, AND CODING GENE AND USE THEREOF” (BEIJING DABEINONG BIOTECHNOLOGY CO., LTD., priority 2021, published 2025)
Residue numbers refer to the chain shown, from its start. Names and notes keep the numbering of the source.

B1: ZmHPPDm-F372A-02: nucleotide sequence encoding Zea mays HPPD with F372A; vector DBN11767 (nucleic acid)
DNA: ATGCCACCCACACCCACAGCAGCAGCGGCGGGCGCAGCGGTCGCAGCGGCGTCAGCGGCGGAGCAAGCGGCGTTCAGATTGGTTGGTCACCGCAACTTCGTGAGATTCAATCCTCGCTCAGATAGATTCCATACTCTGGCCTTCCACCATGTTGAGCTTTGGTGCGCTGATGCTGCTTCTGCTGCTGGAAGGTTCAGCTTCGGTTTGGGTGCTCCCCTCGCTGCTAGATCTGATTTGAGCACTGGTAACTCAGCACATGCTTCCCTCCTGCTTAGATCTGGCTCTCTGAGCTTCCTTTTCACTGCTCCATATGCTCATGGTGCTGATGCTGCTACAGCTGCTCTCCCTTCATTCTCCGCTGCTGCTGCTAGGAGATTCGCTGCTGATCACGGATTGGCTGTGAGGGCTGTTGCACTTAGAGTTGCTGATGCTGAGGAGGCCTTCCGCACCTCTGTTGCTGCTGGAGCCAGACCAGCTTTCGGACCTGTTGATCTCGGAAGGGGTTTCCGCCTGGCTGAGGTGGAGCTTTACGGCGATGTGGTTCTGCGCTACGTTAGCTATCCTGATGGTGCTGCTGGTGAACCTTTCCTTCCAGGATTCGAGGGTGTGGCCTCACCAGGTGCCGCTGATTACGGCCTGTCCAGATTCGACCACATTGTTGGAAATGTTCCTGAGCTTGCTCCAGCTGCTGCCTACTTCGCTGGCTTCACCGGATTCCATGAGTTCGCCGAGTTCACCACTGAGGATGTGGGAACTGCTGAGTCTGGTTTGAATAGCATGGTGCTCGCCAACAATTCAGAGAACGTTTTGCTCCCTCTGAATGAGCCCGTGCACGGAACAAAGAGAAGGTCCCAGATTCAAACCTTCTTGGATCACCACGGCGGCCCAGGTGTTCAGCATATGGCTCTCGCCTCCGATGACGTGTTGAGAACCCTCAGGGAGATGCAAGCCAGGTCTGCTATGGGTGGCTTCGAGTTCATGGCCCCACCTACAAGCGATTACTATGATGGTGTGCGCAGAAGGGCTGGCGACGTTCTTACCGAGGCTCAGATCAAGGAGTGCCAAGAGCTGGGCGTGCTTGTTGATAGAGATGACCAGGGAGTTCTGCTTCAAATTGCTCCCAAGCCAGTGGGCGACAGGCCTACTTTGTTCCTCGAGATTATCCAGAGAATCGGATGCATGGAGAGGGATGAGAAGGGTCAGGAGTACCAAAAGGGAGGTTGCGGCGGATTCGGCAAGGGAAATTTCTCACAACTCTTCAAGTCCATCGAGGACTATGAAAAGAGTCTGGAAGCGATGCAGGCAGCAGCAGCAGCAACCGCACAGGGGTCGTGA
modifications: ZmHPPDm-F372A-02 Nucleotide Sequence
notes: vector DBN11767
B2: ZmHPPDm-F383W-02: nucleotide sequence encoding Zea mays HPPD with F383W; vector DBN11768 (nucleic acid)
DNA: B1 DNA with G1117T, C1118T, T1119C, T1151G, C1152G
modifications: ZmHPPDm-F383W-02 Nucleotide Sequence
notes: vector DBN11768

Assays:
Format in all cases: in vivo
[1] = test system: Arabidopsis thaliana T1 plants; assay: Mesotrione tolerance of transgenic Arabidopsis thaliana T1 plants (spray, bleached leaf area grade, damage score); parameters: Scores: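 damage score 0-100 computed as Σ(N×S)/(T×M)×100 over grades 0-3 with higher meaning more damage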; conditions: Arabidopsis thaliana T1 plants; for Grade 0 (classification and statistics of the grade of pesticide damage; number of plants) / Grade 1 (classification and statistics of the grade of pesticide damage; number of plants) / Grade 2 (classification and statistics of the grade of pesticide damage; number of plants) / Grade 3 (classification and statistics of the grade of pesticide damage; number of plants): 16 plants
How it was run: (§1)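 T1 transformants selected by glufosinate; 18-day-old plants, with empty-vector and wild-type controls, sprayed with topramezone (25–200 g ai/ha), isoxaflutole (35–280 g ai/ha) or mesotrione (52.5–420 g ai/ha), water as 0×. Bleached leaf area fraction scored at 7 DAT as grades 0–3.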

[2] = test system: Arabidopsis thaliana T1 plants; assay: Topramezone tolerance of transgenic Arabidopsis thaliana T1 plants (spray, bleached leaf area grade, damage score); conditions: 7 DAT, Table 4; for Classification and statistics of the grade of pesticide damage: Grade 0 / Classification and statistics of the grade of pesticide damage: Grade 1 / Classification and statistics of the grade of pesticide damage: Grade 2 / Classification and statistics of the grade of pesticide damage: Grade 3: number of plants; for Scores: pesticide damage score 0-100
How it was run: as §1

[3] = test system: Arabidopsis thaliana T1 plants; assay: Isoxaflutole tolerance of transgenic Arabidopsis thaliana T1 plants (spray, bleached leaf area grade, damage score); parameters: Scores (pesticide damage): scale not given here; conditions: spray, Arabidopsis thaliana T1 plants; for Classification and statistics of the grade of pesticide damage: Grade 0 (number of plants) / Classification and statistics of the grade of pesticide damage: Grade 1 (number of plants) / Classification and statistics of the grade of pesticide damage: Grade 2 (number of plants) / Classification and statistics of the grade of pesticide damage: Grade 3 (number of plants): 16 plants
How it was run: as §1

[4] = isoxaflutole 35 g ai/ha (0.5x field concentration)
[5] = isoxaflutole 70 g ai/ha (1x field concentration)

Molecule	Resistance evaluation ([1]; mesotrione 52.5 g ai/ha)	Scores ([1]; mesotrione 52.5 g ai/ha)	Grade 0 (classification and statistics of the grade of pesticide damage; number of plants) ([1]; mesotrione 52.5 g ai/ha)	Grade 1 (classification and statistics of the grade of pesticide damage; number of plants) ([1]; mesotrione 52.5 g ai/ha)	Grade 2 (classification and statistics of the grade of pesticide damage; number of plants) ([1]; mesotrione 52.5 g ai/ha)	Grade 3 (classification and statistics of the grade of pesticide damage; number of plants) ([1]; mesotrione 52.5 g ai/ha)	Resistance evaluation ([1]; mesotrione 105 g ai/ha)	Scores ([1]; mesotrione 105 g ai/ha)	Grade 0 (classification and statistics of the grade of pesticide damage; number of plants) ([1]; mesotrione 105 g ai/ha)	Grade 1 (classification and statistics of the grade of pesticide damage; number of plants) ([1]; mesotrione 105 g ai/ha)	Grade 2 (classification and statistics of the grade of pesticide damage; number of plants) ([1]; mesotrione 105 g ai/ha)	Grade 3 (classification and statistics of the grade of pesticide damage; number of plants) ([1]; mesotrione 105 g ai/ha)	Classification and statistics of the grade of pesticide damage: Grade 0 ([2]; topramezone 25 g ai/ha (1×))	Classification and statistics of the grade of pesticide damage: Grade 1 ([2]; topramezone 25 g ai/ha (1×))	Classification and statistics of the grade of pesticide damage: Grade 2 ([2]; topramezone 25 g ai/ha (1×))	Classification and statistics of the grade of pesticide damage: Grade 3 ([2]; topramezone 25 g ai/ha (1×))	Classification and statistics of the grade of pesticide damage: Grade 0 ([2]; topramezone 100 g ai/ha (4×))	Classification and statistics of the grade of pesticide damage: Grade 1 ([2]; topramezone 100 g ai/ha (4×))	Classification and statistics of the grade of pesticide damage: Grade 2 ([2]; topramezone 100 g ai/ha (4×))	Classification and statistics of the grade of pesticide damage: Grade 3 ([2]; topramezone 100 g ai/ha (4×))	other results
B1	Moderately	31	3	11	2	0	Poorly resistant	67	0	1	14	1	16	0	0	0	4	12	0	0	Scores ([2]; topramezone 25 g ai/ha (1×)): 0; Scores ([2]; topramezone 100 g ai/ha (4×)): 25; Resistance evaluation ([2]; topramezone 25 g ai/ha (1×)): highly; Resistance evaluation ([2]; topramezone 100 g ai/ha (4×)): moderately; Resistance evaluation [3, 4]: Moderately; Scores (pesticide damage) [3, 4]: 33; Classification and statistics of the grade of pesticide damage: Grade 0 (number of plants) [3, 4]: 3; Classification and statistics of the grade of pesticide damage: Grade 1 (number of plants) [3, 4]: 10; Classification and statistics of the grade of pesticide damage: Grade 2 (number of plants) [3, 4]: 3; Classification and statistics of the grade of pesticide damage: Grade 3 (number of plants) [3, 4]: 0; Resistance evaluation [3, 5]: Poorly; Scores (pesticide damage) [3, 5]: 67; Classification and statistics of the grade of pesticide damage: Grade 0 (number of plants) [3, 5]: 0; Classification and statistics of the grade of pesticide damage: Grade 1 (number of plants) [3, 5]: 1; Classification and statistics of the grade of pesticide damage: Grade 2 (number of plants) [3, 5]: 14; Classification and statistics of the grade of pesticide damage: Grade 3 (number of plants) [3, 5]: 1
B2	Poorly resistant	63	0	3	12	1	Non-resistant	98	0	0	1	15	2	9	5	0	0	4	7	5	Scores ([2]; topramezone 25 g ai/ha (1×)): 40; Scores ([2]; topramezone 100 g ai/ha (4×)): 69; Resistance evaluation ([2]; topramezone 25 g ai/ha (1×)): poorly; Resistance evaluation ([2]; topramezone 100 g ai/ha (4×)): non-resistant (non-resistant plants (scores 68-100)); Resistance evaluation [3, 4]: Poorly; Scores (pesticide damage) [3, 4]: 42; Classification and statistics of the grade of pesticide damage: Grade 0 (number of plants) [3, 4]: 2; Classification and statistics of the grade of pesticide damage: Grade 1 (number of plants) [3, 4]: 8; Classification and statistics of the grade of pesticide damage: Grade 2 (number of plants) [3, 4]: 6; Classification and statistics of the grade of pesticide damage: Grade 3 (number of plants) [3, 4]: 0; Resistance evaluation [3, 5]: Non-resistant; Scores (pesticide damage) [3, 5]: 96; Classification and statistics of the grade of pesticide damage: Grade 0 (number of plants) [3, 5]: 0; Classification and statistics of the grade of pesticide damage: Grade 1 (number of plants) [3, 5]: 0; Classification and statistics of the grade of pesticide damage: Grade 2 (number of plants) [3, 5]: 2; Classification and statistics of the grade of pesticide damage: Grade 3 (number of plants) [3, 5]: 14
